Source: patent US20210261667A1 (SHANGHAI NOVAMAB BIOPHARMACEUTICALS, published 2021)

What was measured:
Assay in all cases: ELISA on coated antigen, A405 nm
human B7H3 = target: T1, human B7H3 (human, UniProt Q5ZPR3-2 29-245, limits assumed)
T1 sequence (looked up): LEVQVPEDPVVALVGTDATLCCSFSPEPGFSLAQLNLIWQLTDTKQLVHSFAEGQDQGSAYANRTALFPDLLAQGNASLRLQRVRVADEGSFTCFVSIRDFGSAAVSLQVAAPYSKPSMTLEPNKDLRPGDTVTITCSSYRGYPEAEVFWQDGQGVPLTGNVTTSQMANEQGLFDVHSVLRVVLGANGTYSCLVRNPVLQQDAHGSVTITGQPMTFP

human PD-L2 = target: T2, human PD-L2 (human, UniProt Q9BQ51 20-220, limits assumed)
T2 sequence (looked up): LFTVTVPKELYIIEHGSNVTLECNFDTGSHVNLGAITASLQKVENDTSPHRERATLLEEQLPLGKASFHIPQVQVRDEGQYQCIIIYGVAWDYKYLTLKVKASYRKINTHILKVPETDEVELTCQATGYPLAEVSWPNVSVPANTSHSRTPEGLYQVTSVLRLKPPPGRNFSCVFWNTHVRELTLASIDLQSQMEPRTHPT

B7H4 = target: T3, B7H4 (human, UniProt Q7Z7D3 29-258, limits assumed)
T3 sequence (looked up): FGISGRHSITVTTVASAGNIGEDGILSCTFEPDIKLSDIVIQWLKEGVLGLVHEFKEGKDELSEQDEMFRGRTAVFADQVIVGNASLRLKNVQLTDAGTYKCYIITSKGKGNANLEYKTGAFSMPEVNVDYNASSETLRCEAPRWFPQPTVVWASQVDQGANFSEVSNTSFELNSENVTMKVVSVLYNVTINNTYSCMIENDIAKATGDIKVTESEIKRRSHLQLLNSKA

PD-L1 (mouse) = target: T4, PD-L1 (mouse) (mouse, UniProt Q9EP73 19-238, limits assumed)
T4 construct: also called mouse PD-L1; murine PD-L1

Measured: binding result

T4 sequence (Q9EP73 19-238 limits assumed): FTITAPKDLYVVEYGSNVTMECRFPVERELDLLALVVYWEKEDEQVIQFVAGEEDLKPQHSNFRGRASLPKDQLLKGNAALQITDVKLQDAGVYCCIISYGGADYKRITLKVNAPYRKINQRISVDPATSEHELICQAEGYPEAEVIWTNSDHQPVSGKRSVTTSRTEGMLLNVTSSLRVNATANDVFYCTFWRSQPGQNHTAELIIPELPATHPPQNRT

B1: bivalent anti-PD-L1 single-domain antibody before humanization (Fc fusion)
chain: QVQLQESGGGSVQAGGSLRLSCTASGYNLSPSCMGWFRQAPGKEREGVAFTDADGSTRYADSVKARFTISRDNAENTLYLQMNSLKPEDTAMYYCAADFFSYCSVVFRASARDKYRGQGTQVTVSS
notes: also called bivalent PD-L1 single-domain antibody before humanization; bivalent single-domain antibody before humanization; not shown: IgG1 Fc of vector pFUSE-IgG1
no binding: human B7H3 | human PD-L2 | B7H4 | PD-L1 (mouse)
